In this experiment the target is H1 HA (recombinant HA of Figure 4E) (Influenza A virus, H1 subtype; strain …, UniProt A0A1J0CXU0). The experiment in a line: BLI. For orientation: In BLI a coated tip is dipped into the sample, and binding shifts an interference pattern.

B1: mAb 789-203-3C12 (IgG) (antibody, V domains shown)
VH: QVQLQESGPGLVKPSEILSLTCAVSGGSFSSYCWGWIRQPPGKGLEWIGSICGSGGSNYLNPSLKSRVTLSVDTSKNQFSLILNSVTAADTAVYYCAREGITIFGVVIPRVLDSWGQGAVVTVSS
VL: DIQMTQSPSSLSASVGDTVTITCRASQSISSWLAWYQQKPGKAPNLLIYRASTLQSGVPSRFSGSGSGTDFTLTISSLQSEDFATYFCQQSTSSPFTFGPGTKLDIK
In the case of B1, the binding result was “binds”.

Values taken from publication PMC9772109 (Immunity, 2022).
